Reference: publication PMC1887683

Molecular target: STAT1 (activated; HepG2 nuclear extract, IL-6) (UniProt P42224)
Test: competition EMSA
Details: scale: fold competition efficiency vs c-myc E2F

Chain of STAT1 (activated; HepG2 nuclear extract, IL-6) (P42224 whole entry): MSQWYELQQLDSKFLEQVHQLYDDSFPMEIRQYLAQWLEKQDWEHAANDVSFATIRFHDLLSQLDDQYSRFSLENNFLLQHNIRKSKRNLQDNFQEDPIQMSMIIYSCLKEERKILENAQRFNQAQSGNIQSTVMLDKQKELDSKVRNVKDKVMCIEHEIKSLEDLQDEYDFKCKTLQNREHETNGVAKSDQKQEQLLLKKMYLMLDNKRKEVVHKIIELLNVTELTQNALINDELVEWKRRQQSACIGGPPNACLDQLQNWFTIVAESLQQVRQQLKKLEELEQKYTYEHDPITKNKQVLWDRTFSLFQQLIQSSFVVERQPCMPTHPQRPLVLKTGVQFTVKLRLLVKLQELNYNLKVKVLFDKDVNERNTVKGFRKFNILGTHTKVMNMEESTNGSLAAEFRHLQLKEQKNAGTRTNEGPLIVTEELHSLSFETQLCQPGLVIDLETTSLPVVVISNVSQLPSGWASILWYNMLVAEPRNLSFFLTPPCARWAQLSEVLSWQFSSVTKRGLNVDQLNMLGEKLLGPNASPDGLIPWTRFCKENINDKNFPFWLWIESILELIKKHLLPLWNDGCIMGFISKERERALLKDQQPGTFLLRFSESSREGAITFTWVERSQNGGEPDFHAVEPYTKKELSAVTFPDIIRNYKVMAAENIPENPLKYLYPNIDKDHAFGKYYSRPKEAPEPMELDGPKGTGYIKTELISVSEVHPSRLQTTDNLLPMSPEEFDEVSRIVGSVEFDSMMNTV

Substance APRE (alpha2-macroglobulin) has a binding signal of 5.
